The results in this text go back to patent US12398179 (SANFORD BURNHAM PREBYS MEDICAL DISCOVERY INSTITUTE, dated 2025).

Broadly, the IC50 is the point on the concentration scale where inhibition reaches its midpoint. One may read the Kd as the equilibrium constant for the complex coming apart. A lower Kd goes with higher affinity.

Data set [1] has as its target T1, EphA2 extracellular domain fused to the Fc portion of an antibody (EphA2 Fc).
T1 construct: extracellular domain; Immobilized in the ELISAs
The data set can be described thus: ELISA, inhibition of ephrin-A5 AP binding to immobilized EphA2 Fc; representative experiment; concentrations in nM.

Data set [2] concerns the target T2, endogenous EphA2 expressed in PC3 prostate cancer cells (UniProt P29317 24-976, limits assumed). The data set can be described thus: cell-based or functional assay.
Data set [3] deals with T1, EphA2 extracellular domain fused to the …. The data set can be described thus: competition ELISA: inhibition of ephrin-A5 AP binding to immobilized EphA2 Fc; average ± SE (number of experiments). For orientation: ELISA stands for enzyme-linked immunosorbent assay.
The target of data set [4] is T2, endogenous EphA2 expressed in PC3 …. The experiment in a line: cell-based or functional assay. This is another data set of the same source.
The target of data set [5] is T3, EphA2 ligand binding domain (EphA2 LBD, residues 28-200) with N-terminal MASQGPG and C-terminal Ala-6xHis tag (UniProt P29317 28-200).
T3 construct: range 28-200; Expressed in E. coli Origami 2 (DE3); used for ITC and crystallization
T3 sequence (P29317 other isoform, or with tags, fused parts or gaps limits assumed, form in doubt): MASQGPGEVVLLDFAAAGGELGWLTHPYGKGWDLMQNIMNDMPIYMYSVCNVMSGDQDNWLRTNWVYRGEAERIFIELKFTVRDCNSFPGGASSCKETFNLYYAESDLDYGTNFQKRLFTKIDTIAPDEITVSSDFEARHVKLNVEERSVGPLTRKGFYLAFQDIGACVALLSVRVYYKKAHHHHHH
The experiment in a line: ITC, peptide titrated into EphA2 LBD, 23 °C; average ± SE (number of experiments).
Method: For ITC, all peptides were dissolved in DMSO and both the EphA2 LBD and the peptides were diluted to obtain a final buffer containing 9.5 mM HEPES, pH 7.9, 95 mM NaCl, and 5% DMSO. […] Two-microliter aliquots of a peptide solution were injected into the cell containing 205 µL EphA2 LBD. 200-400 µM peptides were titrated into 20-40 µM EphA2 LBD. Experimental data were analyzed using the Origin software package (Microcal). The integrated values for the reaction heats were normalized to the amount of injected peptide after blank subtraction.

Data set [6] concerns the molecule itself. The experiment in a line: quantitative FRET in HEK293 cells, monomer-dimer fit; dimerization of the mutant without peptide; row assigned as for Kdiss.
Data set [7] concerns the molecule itself. The experiment in a line: quantitative FRET in HEK293 cells, monomer-dimer fit; dimerization of the mutant in the presence of 50 µM YSA-GSGSK-bio; row assigned as for Kdiss.
Data set [8] deals with T1, EphA2 extracellular domain fused to the …. The data set can be described thus: competition ELISA: inhibition of ephrin-A5 AP binding to EphA2 Fc.
For data set [9], the target named is T2, endogenous EphA2 expressed in PC3 …. The data set can be described thus: cell-based or functional assay. This is another data set of the same source.
Data set [10] has the same target. The experiment in a line: cell-based or functional assay. This is another data set of the same source.
Data set [11] has the same target. The data set can be described thus: cell-based or functional assay. This is another data set of the same source.
The target is the same in data set [12]. The experiment in a line: cell-based or functional assay. The source holds these as a separate data set.
For data set [13] the target is unchanged. The data set can be described thus: cell-based or functional assay. The source holds these as a separate data set.
For data set [14] the target is unchanged. The data set can be described thus: cell-based or functional assay. This is another data set of the same source.

Like-named read-outs stand apart in the source and are kept apart here. Non-standard residues stand in square brackets, D forms with d. No end group written: not given here. *: point of attachment. Biotin = O=C1N[C@H]2[C@H](CS[C@H]2CCCCC(=O)*)N1; βAla = NCCC(=O)O

T1 sequence (P29317 whole entry, the tested form may be a part): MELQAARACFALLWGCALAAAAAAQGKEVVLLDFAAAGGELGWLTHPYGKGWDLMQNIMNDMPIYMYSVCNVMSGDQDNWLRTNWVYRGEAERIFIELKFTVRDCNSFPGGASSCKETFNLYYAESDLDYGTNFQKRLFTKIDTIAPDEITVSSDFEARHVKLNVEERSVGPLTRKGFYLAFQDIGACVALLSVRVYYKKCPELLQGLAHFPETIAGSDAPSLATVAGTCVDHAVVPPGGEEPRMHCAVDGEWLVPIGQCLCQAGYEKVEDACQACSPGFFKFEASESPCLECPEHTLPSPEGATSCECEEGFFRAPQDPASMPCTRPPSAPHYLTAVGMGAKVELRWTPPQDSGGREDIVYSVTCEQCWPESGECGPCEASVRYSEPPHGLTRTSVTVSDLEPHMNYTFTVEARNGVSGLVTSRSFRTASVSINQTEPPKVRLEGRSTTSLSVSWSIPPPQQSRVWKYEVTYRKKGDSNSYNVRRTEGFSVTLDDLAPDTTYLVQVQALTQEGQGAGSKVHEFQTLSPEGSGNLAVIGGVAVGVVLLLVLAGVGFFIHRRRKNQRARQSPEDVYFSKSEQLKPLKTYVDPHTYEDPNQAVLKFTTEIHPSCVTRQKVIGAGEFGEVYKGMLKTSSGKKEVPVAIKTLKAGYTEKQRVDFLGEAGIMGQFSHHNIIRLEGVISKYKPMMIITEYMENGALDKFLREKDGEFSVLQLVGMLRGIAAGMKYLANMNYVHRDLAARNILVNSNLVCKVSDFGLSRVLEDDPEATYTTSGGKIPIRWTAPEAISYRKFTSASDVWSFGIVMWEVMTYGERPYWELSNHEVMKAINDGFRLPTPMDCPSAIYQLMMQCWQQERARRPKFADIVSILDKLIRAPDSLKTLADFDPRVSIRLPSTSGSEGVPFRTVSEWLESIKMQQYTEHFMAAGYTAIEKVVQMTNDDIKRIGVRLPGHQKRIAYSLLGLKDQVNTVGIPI

B1: βA-WLA-YRPK-bio (peptide)
peptide: [βAla]WLAYPDSVPYRPK(Biotin)
notes: also called bA-WLA-YRPK-bio; BA-WLA-YRPK-bio
With B1, the IC50 in data set [1] amounted to 37 nM.

On to [βAla]WLAYPDSVPYSPK(Biotin) [βA-WLA-YSPK-bio], for which, in data set [2], the “EC50 of EphA2 pY588 induction, immunoblot, PC3 cells, 15 min” value (“EC50 of EphA2 pY588 induction” for short) is 37 nM and the “IC50 of AKT S473 phosphorylation (pAKT), immunoblot, PC3 cells, 15 min” value (“IC50 of AKT S473 phosphorylation (pAKT)” below) was 30 nM.

B2: YSA-GSGSK-bio (peptide)
peptide: YSAYPDSVPMMSGSGSK(Biotin)
notes: YSA with C-terminal GSGSK linker and biotin on the lysine side chain; also called YSA-GSGSK-biotin; YSA-GSGSK-bio peptide
Turning to B2, in [3], the IC50 was 820 nM.

B3: βA-WLA-YSK-bio (peptide)
peptide: [βAla]WLAYPDSVPYSK(Biotin)
notes: also called bA-WLA-YSK-bio; BA-WLA-YSK-bio
B3 came in with a 50% inhibitory concentration (IC50) in [3] of 300 nM.

KAWLAYPDSVPYRPK (biotin on the N-terminal lysine (K-bio); C-terminal amide (am)) [K-bioA-WLA-YRPKam]: in data set [1], the IC50 stood at 14 nM.

In the case of [βAla]WLAYPDSVPYRPK (also called BA-WLA-YRPK) [βA-WLA-YRPK], in data set [4], the “EC50 of EphA2 pY588 induction” value was determined as 300 nM and the “IC50 of AKT S473 phosphorylation (pAKT)” value came to 500 nM. In [5], this molecule showed a Kd of 190 nM. Further, the IC50 in [3] was 55 nM. The IC50 in [1] stood at 53 nM.

B4: L223R/L254R/V255R (receptor)
chain: AQGKEVVLLDFAAAGGELGWLTHPYGKGWDLMQNIMNDMPIYMYSVCNVMSGDQDNWLRTNWVYRGEAERIFIELKFTVRDCNSFPGGASSCKETFNLYYAESDLDYGTNFQKRLFTKIDTIAPDEITVSSDFEARHVKLNVEERSVGPLTRKGFYLAFQDIGACVALLSVRVYYKKCPELLQGLAHFPETIAGSDAPSRATVAGTCVDHAVVPPGGEEPRMHCAVDGEWRRPIGQCLCQAGYEKVEDACQACSPGFFKFEASESPCLECPEHTLPSPEGATSCECEEGFFRAPQDPASMPCTRPPSAPHYLTAVGMGAKVELRWTPPQDSGGREDIVYSVTCEQCWPESGECGPCEASVRYSEPPHGLTRTSVTVSDLEPHMNYTFTVEARNGVSGLVTSRSFRTASVSINQTEPPKVRLEGRSTTSLSVSWSIPPPQQSRVWKYEVTYRKKGDSNSYNVRRTEGFSVTLDDLAPDTTYLVQVQALTQEGQGAGSKVHEFQTLSPEGSGNLAVIGGVAVGVVLLLVLAGVGFFIHRRRKNQRARQSPEDVYFSKSEQLKPLKTYVDPHTYEDPNQAVLKFTTEIHPSCVTRQKVIGAGEFGEVYKGMLKTSSGKKEVPVAIKTLKAGYTEKQRVDFLGEAGIMGQFSHHNIIRLEGVISKYKPMMIITEYMENGALDKFLREKDGEFSVLQLVGMLRGIAAGMKYLANMNYVHRDLAARNILVNSNLVCKVSDFGLSRVLEDDPEATYTTSGGKIPIRWTAPEAISYRKFTSASDVWSFGIVMWEVMTYGERPYWELSNHEVMKAINDGFRLPTPMDCPSAIYQLMMQCWQQERARRPKFADIVSILDKLIRAPDSLKTLADFDPRVSIRLPSTSGSEGVPFRTVSEWLESIKMQQYTEHFMAAGYTAIEKVVQMTNDDIKRIGVRLPGHQKRIAYSLLGLKDQVNTVGIPI
modifications: A C-terminal fluorescent protein tag (mTURQ donor or EYFP acceptor) is not carried in the letters.
notes: also called EphA2 L223R/L254R/V255R; clustering interface triple mutant; not shown: C-terminal fluorescent protein (mTURQ or EYFP) and any linker to it
With B4, the ΔG of dimerization in data set [6] is -3.8 kcal/mol; in [7], -5 kcal/mol.

With [βAla]WLAYPDSVPY-NH2 (also called bA-WLA-Yam; BA-WLA-Yam) [βA-WLA-Yam], the “fold improvement in potency against βA-WLAam” value in [8] is about 2 fold. For the same molecule, the IC50 in data set [3] came to 410 nM; in data set [1] it was 440 nM.

For the molecule [βAla]WLAYPDSVPYRPK-NH2 (also called BA-WLA-YRPKam) [βA-WLA-YRPKam], in [9], the “EC50 of restoration of pAKT (S473) in cells treated with 0.1 µg/ml ephrin-A1 Fc, immunoblot, PC3 cells” value was determined as 2.4 µM and the “IC50 of inhibition of EphA2 pY588 induced by 0.1 µg/ml ephrin-A1 Fc, immunoblot, PC3 cells” value was 3.2 µM. This molecule registered a Kd in [5] of 110 nM. In [3], the IC50 was found to be 19 nM. Further, in data set [1], the half-inhibitory concentration (IC50) stood at 24 nM.

Molecule YSAYPDSVPMMSGSGSK [YSA-GSGSK] showed a Kd in data set [5] of 8000 nM. Moreover, the IC50 in [3] and in data set [1] was 4500 nM each time.

As for [βAla]WLAYPDSVPYGSGK(Biotin) [βA-WLA-YGSGK-bio], the “EC50 of EphA2 pY588 induction” value in data set [10] worked out at 1 µM.

Take [βAla]WLAYPDSVPYRPK(Ac) [βA-WLA-YRP-acK]: in [11], the “EC50 of EphA2 pY588 induction” value is 190 nM and the “IC50 of AKT S473 phosphorylation (pAKT)” value is 370 nM.

Turning to [βAla]WLAYPDSVPYRPK(Biotin)-NH2 [βA-WLA-YRPKam-bio], in data set [12], the “EC50 of EphA2 pY588 induction” value amounted to 100 nM and the “IC50 of AKT S473 phosphorylation (pAKT)” value was found to be 210 nM.

Consider [βAla]WLAYPDSVPYGSK(Biotin) [βA-WLA-YGSK-bio], for which, in data set [13], the “EC50 of EphA2 pY588 induction” value is 2.2 µM and the “IC50 of AKT S473 phosphorylation (pAKT)” value came out at 0.93 µM.

Take [βAla]WLAYPDSVPYK(Biotin) [βA-WLA-YK-bio]: the “IC50 of AKT S473 phosphorylation (pAKT)” value in data set [14] worked out at 0.97 µM.
